From patent US6428579B1, “Implantable prosthetic devices coated with bioactive molecules” (Brown University Research Foundation, priority 1999, dated 2002)

Experiment: Surface plasmon resonance of peptide adsorption on gold
Type: physicochemical
Details: best fit of SPR spectra, Fresnel theory
From the text: Surface plasmon resonance (SPR) was produced when a beam of p-polarized laser light impinges onto the surface of a thin metal film. The light was coupled to the metal film through a prism which was mounted on a rotating turntable. At a particular angle of incidence the E-field of the laser light interacts with the surface bound free electrons of the metal film in such a way that a charge density wave was generated at the interface of the metal and air. This excitation results in a sharp reduction in the magnitude of the reflected light (measured with a photodiode). The angle at which this occurs together with the depth and half-width of the minimum were determined by the thickness and complex refractive index of the metal film. The magnitude of the evanescent field which arises from the charge density wave decays exponentially in the direction normal to the surface. […] By fitting the Fresnel equations, firstly to the date for the uncoated metal film, and then to the metal plus thin film, the thicknesses and complex refractive indices of the metal and peptide overlayer were determined. […] Another practical advantage of this method is that peptide chemistry can be determined in aqueous environments rather than the ultrahigh vacuums needed for other surface-sensitive techniques (e.g. ESCA). […]

Arg-Gly-Asp-Cys (RGDC; printed: Arg-Gly-Asp-Cys) [fibronectin related peptide, cysteine terminated]
Film thickness of peptide layer: 23-25 Å
